Patent US20070207967

Molecular target: T1, PPC peptide, soluble recombinant 18-mer ADGACGYGRFSPPCGAAG
T1 chain: ADGACGYGRFSPPCGAAG

B1: aminophenylmercuric acetate (APMA)-activated MMP-2 (protein)
chain: YNFFPRKPKWDKNQITYRIIGYTPDLDPETVDDAFARAFQVWSDVTPLRFSRIHDGEADIMINFGRWEHGDGYPFDGKDGLLAHAFAPGTGVGGDSHFDDDELWTLGEGQVVRVKYGNADGEYCKFPFLFNGKEYNSCTDTGRSDGFLWCSTTYNFEKDGKYGFCPHEALFTMGGNAEGQPCKFPFRFQGTSYDSCTTEGRTDGYRWCGTTEDYDRDKKYGFCPETAMSTVGGNSEGAPCVFPFTFLGNKYESCTSAGRSDGKMWCATTANYDDDRKWGFCPDQGYSLFLVAAHEFGHAMGLEHSQDPGALMAPIYTYTKNFRLSQDDIKGIQELYGASPDIDLGTGPTPTLGPVTPEICKQDIVFDGIAQIRGEIFFFKDRFIWRTVTPRDKPMGPLLVATFWPELPEKIDAVYEAPQEEKAVFFAGNEYWIYSASTLERGYPKPLTSLGLPPDVQRVDAAFNWSKNKKTYIFAGDKFWRYNEVKKKMDPGFPKLIADAWNAIPDNLDAVVDLQGGGHSYFFKGAYYLKLENQSLKSVKFGSIKSDWLGC
  gelatin degradation assay (enzymatic activity, biotinylated gelatin substrate): PPC inhibited both MMP-9 and MMP-2 activity
